The series deals with the molecule itself. As to the kind of experiment: AUC.

B1: 217-MGD (extended OPA1-MGD, residues 217–580 and 938–960 connected by the artificial linker) (domain or fragment)
chain: not shown
For B1, the stoichiometry N (commonly the number of molecules, sites or subunits per partner or assembly) was 2.
